Data as given in patent US20050214212A1.

Tests used:
[1] = target: glutathione-S-transferase fusion protein containing domains v3-v10 of human CD44 (human) (UniProt P16070); test: SPR (BIAcore 2000), GST/CD44v3-v10 immobilised on CM5, MAb 8-67 nM injected
[2] = target: CD44v6 (human CD44 variant isoform containing exon v6) on human tumour cells (human) (UniProt P16070); test: immunoreactivity assay on fixed UM-SCC-11B cells, linear extrapolation to infinite antigen excess, experiment 2
[3] = target: CD44v6 (human CD44 variant isoform containing exon v6) on human tumour cells (human) (UniProt P16070); test: immunoreactivity assay, 125I-labelled MAb on glutaraldehyde-fixed UM-SCC-11B cells, experiment 2
[4] = target: CD44v6 (human CD44 variant isoform containing exon v6) on human tumour cells (human) (UniProt P16070); test: immunoreactivity assay, 186Re-MAG3-labelled MAb on fixed UM-SCC-11B cells
[5] = target: glutathione-S-transferase fusion protein containing domains v3-v10 of human CD44 (human) (UniProt P16070); test: SPR (BIAcore 2000), GST/CD44v3-v10 immobilised on CM5
[6] = target: CD44v6 (human CD44 variant isoform containing exon v6) on human tumour cells (human) (UniProt P16070); test: competitive cell ELISA (A431 cells, vs BIWA 1)
Target sequence in this assay (P16070 21-742, stated change not applied): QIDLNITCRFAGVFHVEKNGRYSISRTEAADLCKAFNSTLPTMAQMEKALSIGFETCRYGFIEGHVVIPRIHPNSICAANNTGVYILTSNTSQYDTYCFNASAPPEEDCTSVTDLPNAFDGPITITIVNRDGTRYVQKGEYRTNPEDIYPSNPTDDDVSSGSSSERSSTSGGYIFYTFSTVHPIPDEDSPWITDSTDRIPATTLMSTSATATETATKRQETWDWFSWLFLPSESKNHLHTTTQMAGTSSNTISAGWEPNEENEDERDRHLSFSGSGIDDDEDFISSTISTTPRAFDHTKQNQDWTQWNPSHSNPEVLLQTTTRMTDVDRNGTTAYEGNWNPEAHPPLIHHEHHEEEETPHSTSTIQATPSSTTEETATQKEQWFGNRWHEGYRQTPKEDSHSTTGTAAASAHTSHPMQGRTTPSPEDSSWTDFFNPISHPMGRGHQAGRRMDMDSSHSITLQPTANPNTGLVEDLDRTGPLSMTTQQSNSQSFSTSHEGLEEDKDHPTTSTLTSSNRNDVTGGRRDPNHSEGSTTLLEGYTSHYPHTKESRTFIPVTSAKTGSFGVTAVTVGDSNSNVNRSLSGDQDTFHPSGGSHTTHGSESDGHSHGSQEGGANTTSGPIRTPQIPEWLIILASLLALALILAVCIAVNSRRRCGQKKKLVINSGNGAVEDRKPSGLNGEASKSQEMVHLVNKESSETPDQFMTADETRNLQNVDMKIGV

Sequence of glutathione-S-transferase fusion protein containing domains v3-v10 of human CD44 (human) (P16070 267-604): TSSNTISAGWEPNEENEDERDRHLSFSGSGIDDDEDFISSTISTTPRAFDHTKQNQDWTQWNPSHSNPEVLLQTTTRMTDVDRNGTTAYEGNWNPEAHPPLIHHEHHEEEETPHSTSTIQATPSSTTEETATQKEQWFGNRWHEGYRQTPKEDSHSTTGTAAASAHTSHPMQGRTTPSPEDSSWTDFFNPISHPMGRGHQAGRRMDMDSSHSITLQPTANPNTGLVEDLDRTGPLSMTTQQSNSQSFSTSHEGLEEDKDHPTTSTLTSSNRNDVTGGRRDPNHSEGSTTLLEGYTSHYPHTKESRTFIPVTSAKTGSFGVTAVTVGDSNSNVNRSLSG

Kd [1] [nM] | koff [1] [s⁻¹] | kon [1] [M⁻¹ s⁻¹] | Binding Extrapolated (%) (immunoreactive fraction) [2] | Binding to 5 × 10^6 cells (%) [3] [%] | immunoreactive fraction [4] [%] | Kd relative to murine BIWA 1 [5] | IC50 [6] [µg/mL] | Substance
0.24 | 4.1e-05 | 170000 | 79.9 | 80.5 | > 75 | 0.7 |  | cMAb BIWA 2 (chimeric antibody: BIWA 1 variable regions, human gamma-1 and kappa constant regions)
 |  |  |  |  |  |  | 8.01 | hMAb BIWA 4 (bivatuzumab), humanised CDR-grafted antibody without framework modifications
